US20240376218A1

Tests used:
[1] = target: human CCR4 (P51679_CCR4_HUMAN) (human) (UniProt P51679); test: cell-based or functional assay
human CCR4 (human) = human CCR4 (human) (UniProt P51679); test: cell-based or functional assay
[2] = target: cynomolgus CCR8 (cynomolgus); test: FACS, CHO cells expressing cynomolgus CCR8, signal at saturation
[3] = target: FcRn immobilized on FcRn column (Roche, Order No. 8128057001); test: FcRn affinity chromatography, linear pH gradient
murine CCR8 (mouse) = murine CCR8 (mouse) (UniProt P56484); test: cell-based or functional assay
murine CCR8 (mouse), sequence (P56484 whole entry): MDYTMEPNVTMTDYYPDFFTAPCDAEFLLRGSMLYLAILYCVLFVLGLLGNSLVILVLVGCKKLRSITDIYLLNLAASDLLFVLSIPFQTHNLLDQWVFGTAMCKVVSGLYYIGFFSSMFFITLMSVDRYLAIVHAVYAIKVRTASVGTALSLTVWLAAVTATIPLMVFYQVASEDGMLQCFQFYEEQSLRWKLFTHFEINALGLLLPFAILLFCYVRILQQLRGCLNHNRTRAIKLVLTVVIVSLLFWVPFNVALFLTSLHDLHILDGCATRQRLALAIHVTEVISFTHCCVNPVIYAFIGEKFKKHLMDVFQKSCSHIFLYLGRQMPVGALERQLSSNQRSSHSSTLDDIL

[4] = target: human CCR8 tagged with ProLink (human); test: cell-based or functional assay
human CCR8 (human) = human CCR8 (human) (UniProt P51685); test: cell-based or functional assay

human CCR4 (P51679_CCR4_HUMAN) (human), sequence (P51679 whole entry): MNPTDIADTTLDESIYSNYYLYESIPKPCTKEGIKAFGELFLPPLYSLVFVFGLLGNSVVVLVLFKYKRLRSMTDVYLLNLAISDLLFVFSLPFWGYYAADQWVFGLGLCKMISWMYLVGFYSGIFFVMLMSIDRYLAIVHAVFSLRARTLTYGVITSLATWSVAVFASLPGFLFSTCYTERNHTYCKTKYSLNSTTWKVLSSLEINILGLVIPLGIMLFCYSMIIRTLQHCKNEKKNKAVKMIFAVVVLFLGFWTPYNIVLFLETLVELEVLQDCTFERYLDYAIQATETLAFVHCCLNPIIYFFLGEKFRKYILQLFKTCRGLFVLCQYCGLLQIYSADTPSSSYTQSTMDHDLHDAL
human CCR4 (human), sequence (P51679 whole entry): as above
FcRn immobilized on FcRn column (Roche, Order No. 8128057001), sequence (P55899 24-297, chain 1 of 2): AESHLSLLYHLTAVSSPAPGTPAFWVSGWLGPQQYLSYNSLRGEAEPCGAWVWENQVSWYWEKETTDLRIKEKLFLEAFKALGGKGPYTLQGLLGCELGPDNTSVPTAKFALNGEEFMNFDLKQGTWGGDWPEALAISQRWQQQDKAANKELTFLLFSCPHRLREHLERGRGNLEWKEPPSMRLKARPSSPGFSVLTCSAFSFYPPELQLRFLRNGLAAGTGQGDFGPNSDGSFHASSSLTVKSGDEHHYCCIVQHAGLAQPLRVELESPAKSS
FcRn immobilized on FcRn column (Roche, Order No. 8128057001), sequence (P61769 21-119, chain 2 of 2, further chain): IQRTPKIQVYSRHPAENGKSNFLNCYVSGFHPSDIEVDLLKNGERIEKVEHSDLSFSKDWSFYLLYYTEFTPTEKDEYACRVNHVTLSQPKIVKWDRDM
cynomolgus CCR8 (cynomolgus), sequence (O97665 other isoform, or with tags, fused parts or gaps): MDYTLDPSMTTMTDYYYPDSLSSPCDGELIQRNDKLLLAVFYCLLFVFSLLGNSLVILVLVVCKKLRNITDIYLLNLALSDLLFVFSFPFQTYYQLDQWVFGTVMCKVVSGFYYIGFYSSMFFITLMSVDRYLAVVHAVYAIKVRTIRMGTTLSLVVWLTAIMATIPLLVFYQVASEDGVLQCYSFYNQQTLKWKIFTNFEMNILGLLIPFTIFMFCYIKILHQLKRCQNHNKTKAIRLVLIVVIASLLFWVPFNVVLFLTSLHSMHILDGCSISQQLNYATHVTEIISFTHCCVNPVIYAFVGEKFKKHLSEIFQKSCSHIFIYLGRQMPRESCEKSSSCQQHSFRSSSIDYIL
Ustekinumab (antibody), sequence (HC): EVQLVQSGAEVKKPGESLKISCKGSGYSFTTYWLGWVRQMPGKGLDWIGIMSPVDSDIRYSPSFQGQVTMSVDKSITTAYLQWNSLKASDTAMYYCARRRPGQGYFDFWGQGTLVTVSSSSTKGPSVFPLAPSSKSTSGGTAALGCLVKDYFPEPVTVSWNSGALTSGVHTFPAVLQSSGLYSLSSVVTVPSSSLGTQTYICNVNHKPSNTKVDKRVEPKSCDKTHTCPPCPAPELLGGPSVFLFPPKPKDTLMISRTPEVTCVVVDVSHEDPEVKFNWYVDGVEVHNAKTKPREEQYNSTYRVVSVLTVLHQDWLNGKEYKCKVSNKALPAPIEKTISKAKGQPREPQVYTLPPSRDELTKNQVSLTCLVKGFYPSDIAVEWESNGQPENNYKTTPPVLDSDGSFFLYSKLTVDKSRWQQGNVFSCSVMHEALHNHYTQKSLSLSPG
Ustekinumab (antibody), sequence (LC): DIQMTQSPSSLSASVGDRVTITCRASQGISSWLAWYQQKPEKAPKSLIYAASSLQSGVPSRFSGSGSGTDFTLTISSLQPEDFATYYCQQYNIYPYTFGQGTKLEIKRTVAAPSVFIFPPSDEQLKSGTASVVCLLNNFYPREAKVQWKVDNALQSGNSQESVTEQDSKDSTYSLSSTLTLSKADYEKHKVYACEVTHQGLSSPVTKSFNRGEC

## Mogamulizumab (antibody)
[1]
  ADCC EC50, activated Tregs + NK92v, Donor 1213: 0.31 nM
  ADCC EC50, activated Tregs + NK92v, Donor 1730: 1.09 nM
  ADCC Max Response, activated Tregs + NK92v, Donor 1213: 58%
  ADCC Max Response, activated Tregs + NK92v, Donor 1730: 65%
Human CCR4 (human)
  ADCC Max Response (%); activated human Tregs (Donor 1100) as target cells, NK92v effector cells: 96%
  ADCC Max Response (%); activated human Tregs (Donor 1100), NK92v effector cells: 74%
  ADCC Max Response (%); activated human Tregs (Donor 1261), NK92v effector cells: 71%
  ADCC hTreg EC50 (pM); activated human Tregs (Donor 1100) as target cells, NK92v effector cells: 35.2 pM
  ADCC hTreg EC50 (pM); activated human Tregs (Donor 1100), NK92v effector cells: 193 pM
  ADCC hTreg EC50 (pM); activated human Tregs (Donor 1261), NK92v effector cells: 86.4 pM

## L263G8 (Biolegend) (antibody)
[2]
  MFI: < 1000

## Ustekinumab (antibody)
[3]
  pH at Elution: 7.22 pH

## SA214G2 (antibody)
Murine CCR8 (mouse)
  Internalization [fold isotype], mBW5147.3 cells, BODIPY FL-labelled antibody: 11 fold isotype

## Briakinumab (antibody)
[3]
  pH at Elution: 7.85 pH

## CCL1 (human) (from UniProt P22362 24-96) (ligand)
[4]
  EC80 of β-arrestin signaling (DiscoverX assay): 0.02 µg/mL

## L263G8 (antibody)
Human CCR8 (human)
  Ca flux assay IC50 (nM), block of signaling induced by CCL1 at 60 ng/ml; CHO cells expressing human CCR8: 1.26 nM
  Ca flux assay Span ratio (from max to min), block of signaling induced by CCL1 at 60 ng/ml; CHO cells expressing human CCR8: 921
  Internalization [fold isotype], HuT78 cells, BODIPY FL-labelled antibody: 22 fold isotype
[4]
  IC50 in nM for inhibition of CCL1 induced β-arrestin signaling (DiscoverX assay), CHO with hCCR8: 13.8 nM
